According to paper PMC8186250:

Molecular target: EBNA1 DBD WT (Epstein-Barr virus (B95-8), UniProt P03211 459-607)
Experiment: SDS-EMSA

Sequence of EBNA1 DBD WT (P03211 459-607): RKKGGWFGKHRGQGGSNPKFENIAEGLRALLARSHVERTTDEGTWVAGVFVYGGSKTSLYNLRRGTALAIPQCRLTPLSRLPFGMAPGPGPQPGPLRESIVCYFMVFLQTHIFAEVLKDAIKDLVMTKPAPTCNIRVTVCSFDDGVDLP

B1: 2xFR (dsDNA)
DNA 1: ATTAGGATAGCCTATGCTACCCAGATATAGATTAGGATAGCATATGCTACCCAGATATAGAGAGCGTCACCTAAGCC
DNA 2: GGCTTAGGTGACGCTCTATATCTGGGTAGCATATGCTATCCTAATCTATATCTGGGTAGCATAGGCTATCCTAAT
  binding result: binds
